Measurements as given in paper PMC7737734.

Tests used:
[1] = molecular target: ZIKV full-length envelope protein E with A264C, as displayed on virus-like particles (VLP-cvD) (Zika virus (strain PE243)); experiment: non-reducing SDS-PAGE and Western blot of a disulfide-linked dimer; purified VLPs on SDS-PAGE under reducing (DTT) or nonreducing conditions, E detected with the monoclonal antibody DIII-1B
[2] = molecular target: ZIKV soluble envelope protein E, covalently stabilized dimer (sE-cvD), A264C, V5-tagged (Zika virus (strain ArD158095)); experiment: non-reducing SDS-PAGE of a disulfide-linked dimer; purified sE proteins on 10% SDS-PAGE under reducing (DTT) and nonreducing conditions, gel stained with InstantBlue

Row | Substance | stoichiometry N [1] | stoichiometry N [2]
1 | ZIKV full-length envelope protein E with A264C, as displayed on virus-like particles (VLP-cvD) (natural protein) | 2 | 
2 | ZIKV soluble envelope protein E, covalently stabilized dimer (sE-cvD), A264C, V5-tagged (domain or fragment) |  | 2
